Measured values taken from US20070196275A1, “Diagnostic Imaging Compositions, Their Methods Of Synthesis And Use” (priority 2001, published 2007).

Assays:
[1] = set-up: species or system Nude mice; details: mouse, in vivo; for clearance / t1/2, α / t1/2, β / terminal half-life (rounded figures): iv
Method: At predetermined intervals, blood samples (30-60 μl) were taken from the medial saphenous vein by puncture, and the radioactivity of each sample was measured with a Cobra Autogamma counter (Packard, Downers Grove, Ill.). The pharmacokinetic parameters for each radiotracer were calculated from mean blood concentration values observed over the study period using WinNonlin™ 2.1 software (Scientific Consulting, Inc., Lexington, Ky.). The mice were killed at the end of the study, and the liver, muscle, kidneys, and spleen were removed, weighed, and measured for radioactivity. The data are expressed as percentage of injected dose per gram of tissue. In FIG. 15A, the y-axis represents % Injected dose/ml blood; the x-axis represents time in hours. Squares represent Annexin V. Diamonds represent PEG-Annexin V. In FIG. 15B, the y-axis represents % Injected dose/g tissue. From left to right, the paired bars in FIG. 15B represent blood, liver, kidney, spleen, and muscle tissues, respectively. The bars on the left of the paired bars represent Annexin V. The bars on the right of the paired bars represent PEG-Annexin V.

MDA-MB-468 tumors [2] = tested on: MDA-MB-468 tumors; set-up: species or system mice; details: mouse, in vivo
Method: The following materials and methods were used in this example. Human breast adenocarcinoma MDA-MB-468 cells were maintained in 1:1(v/v) Dulbecco's modified Eagle's medium (DMEM)/Ham's F-12 mixture supplemented with 10% fetal bovine serum (FBS) (Gibco Laboratories, Grand Island, N.Y.) at 37 C in 5% CO2/95% air. […] Mice in Group I were not treated and were used as a control. In Group II, mice were injected intravenous with PG-paclitaxel (PG-TXL) at an equivalent paclitaxel (Taxol, TXL) dose of 100 mg/kg 1 day before the injection of radiotracer. PG-TXL is a water-soluble polymeric conjugate of paclitaxel and poly(l-glutamic acid). […] The conjugate has the same mechanism of action as paclitaxel. […] Radioactivity of each sample was measured with the Cobra Auto-gamma Counter (Packard, Downers Grove, Ill.). The percentage of the injected dose per gram of tissue (% ID/g tissue) was calculated for each sample. In a separate experiment, tumors were histologically analyzed to quantify apoptotic index induced by drug treatments. […] Apoptosis index was scored in coded slides by microscopic examination at 400× magnification. Five fields of nonnecrotic areas were randomly selected in each histological specimen, and in each field the number of apoptotic nuclei were recorded as numbers per 100 nuclei and were expressed as a percentage. […]

[3] = tested on: Ara-C treated HL60 and Raji cells (apoptotic cells); assay: Cell binding assay of radiolabeled PEGylated annexin V; set-up: species or system human; details: 1.0 μM Ara-C
Method: The 1:30 and 1:60 preps of PEGylated annexin V were tested for their ability to bind to cells that had been treated with Ara-C to induce apoptosis. Human leukemia HL60 or human B-cell lymphoma Raji cells (1×10^6 cells/ml each) were treated with Ara-C at 1.0 μM for 6 hours or 22 hours to induce apoptosis. The cells were then washed twice with PBS and re-suspended in binding buffer (10 mM HEPES/NaOH, pH 7.5 containing 140 mM NaCl and 2.5 mM CaCl2) at a concentration of 1×10^6 cells/ml. Five μl annexin V-FITC solution (50 μg/ml in 50 mM Tris-HCl, pH 7.5, containing 100 mM NaCl) was added into the control cells as well as treated cells. The mixtures were incubated at room temperature for 10 minutes. Apoptotic cells stained with annexin V-FITC (Sigma) were quantified with a Labsystems Fluoroskan FL flow cytometer (Helsinki, Finland) (FIG. 13). […] The cells were washed twice with PBS, centrifuged and counted for cell-associated radioactivity (FIG. 14). FIG. 13 is a bar graph showing apoptotic index after treatment with 1.0 uM Ara-C as quantified by flow cytometry analysis using annexin V-FITC as fluorescent probe. In FIG. 13, the y-axis represents the percent apoptotic cells; the x-axis represents the time after treatment in hours. […] In FIG. 14, the y-axis represents radioactivity in cpm; the x-axis represents time after treatment in hours. […]

[4] = tested on: HL60 cells and Raji cells; assay: Flow cytometry of apoptotic cells stained with annexin V-FITC; type: cell-based, human; details: 1.0 μM, 22 hours, annexin V-FITC staining
Method: The 1:30 and 1:60 preps of PEGylated annexin V were tested for their ability to bind to cells that had been treated with Ara-C to induce apoptosis. Human leukemia HL60 or human B-cell lymphoma Raji cells (1×10^6 cells/ml each) were treated with Ara-C at 1.0 μM for 6 hours or 22 hours to induce apoptosis. The cells were then washed twice with PBS and re-suspended in binding buffer (10 mM HEPES/NaOH, pH 7.5 containing 140 mM NaCl and 2.5 mM CaCl2) at a concentration of 1×10^6 cells/ml. Five μl annexin V-FITC solution (50 μg/ml in 50 mM Tris-HCl, pH 7.5, containing 100 mM NaCl) was added into the control cells as well as treated cells. The mixtures were incubated at room temperature for 10 minutes. Apoptotic cells stained with annexin V-FITC (Sigma) were quantified with a Labsystems Fluoroskan FL flow cytometer (Helsinki, Finland) (FIG. 13). […] The cells were washed twice with PBS, centrifuged and counted for cell-associated radioactivity (FIG. 14).
FIG. 13 is a bar graph showing apoptotic index after treatment with 1.0 uM Ara-C as quantified by flow cytometry analysis using annexin V-FITC as fluorescent probe. In FIG. 13, the y-axis represents the percent apoptotic cells; the x-axis represents the time after treatment in hours. […] In FIG. 14, the y-axis represents radioactivity in cpm; the x-axis represents time after treatment in hours. […]

MDA-MB-468 tumors [5] = assay: Autoradiography and TUNEL assay; type: in vivo, mice; details: 4 days after treatment, intratumoral distribution of ^111In-DTPA-PEG-AV
Description: Two tumors removed from each group of mice at the end of the gamma imaging session were rapidly frozen, processed, and 8-μm sections were made. The sliced sections were fixed in cold acetone, dried, and exposed to a multipurpose storage phosphor screen for 10 days. A Cyclone™ Storage Phosphor System (Packard Instrument Company, Inc., Meriden, Conn.) was used to obtain autoradiographic images. The radioactivity at selected field of view is expressed as digital light unit per millimeter square (DLU/mm^2).
DNA fragmentation was analyzed by terminal deoxynucleotidyl transferase (TdT)-uridine nick end labeling (TUNEL) using a commercial kit according to the manufacturer provided protocol (Promega, Madison, Wis.). Frozen tissue sections (8 μm) were fixed with 4% paraformaldehyde (methanol-free) for 10 minutes at room temperature. The sections were washed with PBS two times (5 minutes each) and incubated with equilibration buffer (Promega) for 10 minutes at room temperature. […] Images were recorded using an Olympus fluorescence microscope (Olympus, Melville, N.Y.) with 520 nm filter and 20× object lens. Apoptotic cells per slide view were quantified by AAB colony counting software (Advanced American Biotechnology, Fullerton, Calif.) and expressed as number per field of view (0.016 mm^2).

## 1:15 prep ^111In-DTPA-PEG-annexin V: ^111In-labeled annexin V PEGylated with SCN-PEG-DTPA, 1:15 prep
[1]
  percentage of injected dose per gram of tissue, blood: 0.36±0.05%
  percentage of injected dose per gram of tissue, kidney: 22.35±4.74%
  percentage of injected dose per gram of tissue, liver: 8.37±2.76%
  percentage of injected dose per gram of tissue, muscle: 0.75±0.04%
  percentage of injected dose per gram of tissue, spleen: 6.75±0.44%
  clearance: 0.01 mL/h
  t1/2, α: 4.90 h
  t1/2, β: 26.3 h
  terminal half-life (rounded figures): 26 h

## 1:30 prep of ^111In-DTPA-PEG-AV: ^111In-labeled annexin V PEGylated with SCN-PEG-DTPA at molar ratio 1:30
MDA-MB-468 tumors [2]
  change of tumor uptake 1 day after PG-TXL: slight but non-significant increase of the radiotracer in the tumor
[3]; HL60 and Raji cells
  increase of cell associated radioactivity after treatment with Ara-C: 4-6 fold

## 1:60 prep of ^111In-DTPA-PEG-AV: ^111In-labeled annexin V PEGylated with SCN-PEG-DTPA at molar ratio 1:60
[3]; Raji cells
  binding to Ara-C treated cells: did not show binding to the Ara-C treated cells

## Nc1ccn([C@@H]2O[C@H](CO)[C@@H](O)[C@@H]2O)c(=O)n1 [Ara-C]
[4]
  increase of percentage of apoptotic cells: 4-10 fold

## ^111In-DTPA-annexin V: ^111In-labeled annexin V with DTPA, without PEG; comparison [reference compound]
[1]
  clearance: 0.4 mL/h
  t1/2, α: 0.07 h
  t1/2, β: 17.4 h
  terminal half-life (rounded figures): 17 h

## poly (L-glutamic acid)-paclitaxel conjugate [PG-TXL]
MDA-MB-468 tumors [5]
  apoptotic response of the tumor to treatment: increased apoptosis
